From PMC9402430, “Cryo-EM structure of an active bacterial TIR–STING filament complex” (Nature, 2022)

Legend:
[1] = target: T1, SfSTING (Sphingobacterium faecium TIR–STING) (Sphingobacterium faecium, UniProt A0A2T5Y4G4); assay: cryo-EM structure; EMSA; conditions: 3x molar c-di-GMP (84 uM); STING CDN-binding pocket at dimer interface; activating ligand
T1 construct: gene cap12; full-length TIR-STING; N-terminal 6xHis fusion, modified pET16, E. coli BL21-CodonPlus(DE3)-RIL; homodimer forming filaments
T1 sequence (A0A2T5Y4G4 1-323): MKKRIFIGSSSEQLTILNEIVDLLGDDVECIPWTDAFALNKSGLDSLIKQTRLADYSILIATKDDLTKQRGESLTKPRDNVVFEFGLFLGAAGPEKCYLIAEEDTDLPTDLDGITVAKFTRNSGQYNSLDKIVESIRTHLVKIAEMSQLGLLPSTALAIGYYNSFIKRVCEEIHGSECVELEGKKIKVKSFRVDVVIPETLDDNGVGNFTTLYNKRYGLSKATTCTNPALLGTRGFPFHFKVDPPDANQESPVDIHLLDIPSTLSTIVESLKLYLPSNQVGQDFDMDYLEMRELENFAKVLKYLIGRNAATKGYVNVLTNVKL

[2] = target: T1, SfSTING (Sphingobacterium faecium TIR–STING); assay: fluorescence NADase assay; type: biochemical; conditions: 500 uM substrate; 20 uM c-di-GMP activator; 20 mM HEPES-KOH pH 7.5, 100 mM KCl
[3] = target: the molecule itself; assay: cryo-EM structure; SfSTING 1 mg/ml rapidly mixed with 3× molar c-di-GMP (84 μM), frozen within 10 s, 4 °C; second dataset pre-incubated with 1 mM benzamide adenine dinucleotide; dimers to filament (single and antiparallel double filaments)
[4] = target: the molecule itself; assay: cryo-EM structure; SfSTING 1 mg/ml rapidly mixed with 3× molar 3′,3′-cGAMP (84 μM), a weakly activating ligand; dimers to short oligomers
[5] = target: the molecule itself; assay: negative-stain EM; 1 μM wild-type or mutant SfSTING with 10 μM c-di-GMP, 20 mM HEPES-KOH pH 7.5, 250 mM KCl, 1 mM TCEP, 15 min on ice; dimers to filament

## Nc1nc2c(ncn2[C@@H]2O[C@@H]3COP(=O)(O)O[C@H]4[C@@H](O)[C@H](n5cnc6c(=O)[nH]c(N)nc65)O[C@@H]4COP(=O)(O)O[C@H]3[C@H]2O)c(=O)[nH]1 [c-di-GMP]
[1]
  cryo-EM structure; EMSA: cryo-EM density map of the active SfSTING–c-di-GMP filament complex

## NC(=O)c1ccc[n+]([C@@H]2O[C@H](COP(=O)(O)OP(=O)(O)OC[C@H]3O[C@@H](n4cnc5c4ncn4ccnc54)[C@H](O)[C@@H]3O)[C@@H](O)[C@H]2O)c1 [nicotinamide 1,N^6-ethenoadenine dinucleotide]
[2]
  fluorescence NADase assay: WT* and E95Q* mutant SfSTING consume the ε-NAD substrate within the deadtime

B1: Sphingobacterium faecium TIR–STING (SfSTING), wild type (enzyme, UniProt A0A2T5Y4G4 1-323, looked up)
chain: MKKRIFIGSSSEQLTILNEIVDLLGDDVECIPWTDAFALNKSGLDSLIKQTRLADYSILIATKDDLTKQRGESLTKPRDNVVFEFGLFLGAAGPEKCYLIAEEDTDLPTDLDGITVAKFTRNSGQYNSLDKIVESIRTHLVKIAEMSQLGLLPSTALAIGYYNSFIKRVCEEIHGSECVELEGKKIKVKSFRVDVVIPETLDDNGVGNFTTLYNKRYGLSKATTCTNPALLGTRGFPFHFKVDPPDANQESPVDIHLLDIPSTLSTIVESLKLYLPSNQVGQDFDMDYLEMRELENFAKVLKYLIGRNAATKGYVNVLTNVKL
notes: TIR–STING antiphage effector of the S. faecium CBASS operon; also called WT; source: E. coli BL21-CodonPlus(DE3)-RIL, purified (Ni-NTA, Superdex 200 SEC)
[3]
  stoichiometry N: ~85 dimer copies
[4]
  stoichiometry N: 4 to 6 units (dimers)

B2: SfSTING D110A (enzyme, Sphingobacterium faecium, UniProt A0A2T5Y4G4 1-323, looked up)
chain: MKKRIFIGSSSEQLTILNEIVDLLGDDVECIPWTDAFALNKSGLDSLIKQTRLADYSILIATKDDLTKQRGESLTKPRDNVVFEFGLFLGAAGPEKCYLIAEEDTDLPTALDGITVAKFTRNSGQYNSLDKIVESIRTHLVKIAEMSQLGLLPSTALAIGYYNSFIKRVCEEIHGSECVELEGKKIKVKSFRVDVVIPETLDDNGVGNFTTLYNKRYGLSKATTCTNPALLGTRGFPFHFKVDPPDANQESPVDIHLLDIPSTLSTIVESLKLYLPSNQVGQDFDMDYLEMRELENFAKVLKYLIGRNAATKGYVNVLTNVKL
notes: S. faecium TIR–STING (SfSTING) with a substitution of the TIR DD-loop residue that completes the active site of the dimer mate; Mutant of m1; same vector and purification; also called intradimeric contact mutant; source: E. coli BL21-CodonPlus(DE3)-RIL, purified (Ni-NTA, Superdex 200 SEC)
[5]
  binding result: binds

B3: SfSTING ΔA36–K41 (TIR BB loop replaced by a glycine-serine linker, D35-GSGG-S42) (enzyme, Sphingobacterium faecium, UniProt A0A2T5Y4G4 1-323, looked up)
chain: MKKRIFIGSSSEQLTILNEIVDLLGDDVECIPWTDGSGGSGLDSLIKQTRLADYSILIATKDDLTKQRGESLTKPRDNVVFEFGLFLGAAGPEKCYLIAEEDTDLPTDLDGITVAKFTRNSGQYNSLDKIVESIRTHLVKIAEMSQLGLLPSTALAIGYYNSFIKRVCEEIHGSECVELEGKKIKVKSFRVDVVIPETLDDNGVGNFTTLYNKRYGLSKATTCTNPALLGTRGFPFHFKVDPPDANQESPVDIHLLDIPSTLSTIVESLKLYLPSNQVGQDFDMDYLEMRELENFAKVLKYLIGRNAATKGYVNVLTNVKL
notes: S. faecium TIR–STING (SfSTING) in which residues A36–K41 of the TIR BB loop are replaced by GSGG (D35-GSGG-S42); Mutant of m1; also called TIR-to-TIR cross-filament contact mutant; SfSTING TIR mutant; source: E. coli BL21-CodonPlus(DE3)-RIL, purified (Ni-NTA, Superdex 200 SEC)
[5]
  binding result: binds
